Test results reported in patent publication US20180057604A1 (Genentech, published 2018).
Where two headings read alike, the source gives them in different places.

Key:
[1] = molecular target: T1, human TfR extracellular domain with N-terminal His tag (human, UniProt P02786 89-760); assay: SPR, TfR captured by anti-His, Fab injected;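 on KD: single cycle kinetics with a Fab dilution series, fitted by a one-to-one Langmuir model or a steady state model, KD taken as koff over kon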
T1 construct: Biotinylated in some assays; also called huTfR; HuTfR
T1 sequence (P02786 89-760 G142S): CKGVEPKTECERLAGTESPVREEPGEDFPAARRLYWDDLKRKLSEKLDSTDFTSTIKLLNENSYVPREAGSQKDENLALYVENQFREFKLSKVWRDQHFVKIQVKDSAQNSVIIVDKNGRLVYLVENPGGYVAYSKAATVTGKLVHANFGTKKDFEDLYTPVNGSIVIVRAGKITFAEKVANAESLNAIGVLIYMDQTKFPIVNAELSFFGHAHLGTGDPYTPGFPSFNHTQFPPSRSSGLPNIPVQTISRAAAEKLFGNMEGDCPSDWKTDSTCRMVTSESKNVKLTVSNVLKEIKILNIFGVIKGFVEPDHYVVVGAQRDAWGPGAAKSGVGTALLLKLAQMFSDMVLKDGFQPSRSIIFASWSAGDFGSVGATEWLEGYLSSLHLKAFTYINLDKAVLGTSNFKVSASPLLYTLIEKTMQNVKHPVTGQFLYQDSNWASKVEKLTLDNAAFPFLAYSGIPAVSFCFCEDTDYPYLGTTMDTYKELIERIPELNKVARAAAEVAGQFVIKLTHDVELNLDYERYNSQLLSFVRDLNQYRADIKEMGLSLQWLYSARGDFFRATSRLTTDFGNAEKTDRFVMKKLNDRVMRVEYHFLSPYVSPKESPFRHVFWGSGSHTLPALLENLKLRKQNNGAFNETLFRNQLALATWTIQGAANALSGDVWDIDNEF

[2] = molecular target: T2, cyno TfR extracellular domain (analogous construct to human TfR ecd) (cynomolgus monkey, UniProt Q5RDH6 87-760 (Pongo abelii entry)); assay: SPR, TfR captured by anti-His, Fab injected;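 on KD: single cycle kinetics with a Fab dilution series, fitted by a one-to-one Langmuir model or a steady state model, KD taken as koff over kon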
T2 construct: also called cynoTfR ecd
T2 chain: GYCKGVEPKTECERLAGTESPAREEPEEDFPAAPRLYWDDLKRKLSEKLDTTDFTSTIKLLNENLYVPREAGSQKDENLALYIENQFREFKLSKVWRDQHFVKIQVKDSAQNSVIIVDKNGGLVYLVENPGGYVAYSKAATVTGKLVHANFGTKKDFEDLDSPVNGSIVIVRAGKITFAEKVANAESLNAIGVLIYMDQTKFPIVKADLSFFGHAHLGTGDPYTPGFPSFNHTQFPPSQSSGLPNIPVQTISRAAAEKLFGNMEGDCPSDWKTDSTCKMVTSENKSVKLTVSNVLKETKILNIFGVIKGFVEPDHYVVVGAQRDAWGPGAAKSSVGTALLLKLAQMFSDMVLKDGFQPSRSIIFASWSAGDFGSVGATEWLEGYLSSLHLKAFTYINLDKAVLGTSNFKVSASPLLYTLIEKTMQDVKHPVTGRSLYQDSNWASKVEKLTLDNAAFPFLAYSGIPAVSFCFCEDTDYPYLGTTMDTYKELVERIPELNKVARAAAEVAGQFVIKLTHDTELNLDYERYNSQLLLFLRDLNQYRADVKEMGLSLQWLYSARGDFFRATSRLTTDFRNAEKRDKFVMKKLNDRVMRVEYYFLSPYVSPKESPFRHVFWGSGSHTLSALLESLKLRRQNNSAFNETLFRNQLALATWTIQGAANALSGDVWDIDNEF

[3] = molecular target: T2, cyno TfR extracellular domain …; assay: SPR, KD on cyno TfR over KD on human TfR
[4] = molecular target: BACE1 (HTRF long substrate and FRET short substrate assays of Example 9D); assay: cell-based or functional assay
murine BACE1 ECD [5] = molecular target: T3, murine BACE1 ECD; assay: Octet, pH 5.0, second run
T3 construct: analyte of the Octet assay (200 nM) and enzyme of the first short substrate assay
T3 sequence (single chain, as listed by the source limits assumed): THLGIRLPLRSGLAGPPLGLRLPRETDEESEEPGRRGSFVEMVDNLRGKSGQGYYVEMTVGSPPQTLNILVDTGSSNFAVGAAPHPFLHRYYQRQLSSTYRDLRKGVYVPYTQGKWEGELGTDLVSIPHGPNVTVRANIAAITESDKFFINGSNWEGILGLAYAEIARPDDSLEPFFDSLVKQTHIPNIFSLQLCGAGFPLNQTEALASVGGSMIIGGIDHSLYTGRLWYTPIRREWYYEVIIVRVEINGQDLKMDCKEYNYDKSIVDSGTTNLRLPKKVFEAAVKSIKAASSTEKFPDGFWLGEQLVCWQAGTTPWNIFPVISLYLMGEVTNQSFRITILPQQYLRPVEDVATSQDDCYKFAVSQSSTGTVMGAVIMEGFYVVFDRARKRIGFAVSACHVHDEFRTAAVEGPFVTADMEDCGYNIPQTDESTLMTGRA

human BACE1 ECD [6] = molecular target: T4, human BACE1 ECD; assay: Octet, pH 5.0, second run
T4 construct: analyte of the Octet assay (200 nM) and enzyme of the first short substrate assay; also called human BACE1 extracellular domain
T4 sequence (single chain, as listed by the source limits assumed): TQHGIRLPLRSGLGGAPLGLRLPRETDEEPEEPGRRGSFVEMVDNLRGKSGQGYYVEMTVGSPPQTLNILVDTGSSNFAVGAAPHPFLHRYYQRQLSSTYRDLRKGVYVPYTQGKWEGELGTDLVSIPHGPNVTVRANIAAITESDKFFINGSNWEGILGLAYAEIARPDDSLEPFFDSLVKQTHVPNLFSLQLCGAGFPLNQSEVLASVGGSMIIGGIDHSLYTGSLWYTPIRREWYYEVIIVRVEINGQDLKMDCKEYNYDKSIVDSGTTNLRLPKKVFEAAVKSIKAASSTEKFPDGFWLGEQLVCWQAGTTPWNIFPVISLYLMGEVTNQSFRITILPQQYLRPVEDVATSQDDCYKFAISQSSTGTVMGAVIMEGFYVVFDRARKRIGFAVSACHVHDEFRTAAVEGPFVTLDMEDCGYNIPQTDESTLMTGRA

murine BACE1 ECD [7] = molecular target: T3, murine BACE1 ECD; assay: Octet, pH 5.0;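 further: antibodies captured on anti-human capture sensor tips, dissociation monitored in PBS with BSA buffer, kinetics fitted with a one-to-one binding model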
human BACE1 ECD [8] = molecular target: T4, human BACE1 ECD; assay: Octet, pH 5.0;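 further: antibodies captured on anti-human capture sensor tips, dissociation monitored in PBS with BSA buffer, kinetics fitted with a one-to-one binding model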
murine BACE1 ECD [9] = molecular target: T3, murine BACE1 ECD; assay: Octet, pH 7.5;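 further: antibodies captured on anti-human capture biosensor tips, dissociation followed in PBS with BSA buffer, kinetics fitted with a one-to-one binding model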
human BACE1 ECD [10] = molecular target: T4, human BACE1 ECD; assay: Octet, pH 7.5;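 further: antibodies captured on anti-human capture biosensor tips, dissociation followed in PBS with BSA buffer, kinetics fitted with a one-to-one binding model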
murine BACE1 ECD [11] = molecular target: T3, murine BACE1 ECD; assay: Octet, pH 7.5, second run
human BACE1 ECD [12] = molecular target: T4, human BACE1 ECD; assay: Octet, pH 7.5, second run
[13] = molecular target: T5, human BACE1 (R&D Systems) (human, UniProt P56817); assay: SPR (Biacore)
T5 construct: recombinant, commercial (R&D Systems)
T5 sequence (P56817 22-457 limits assumed): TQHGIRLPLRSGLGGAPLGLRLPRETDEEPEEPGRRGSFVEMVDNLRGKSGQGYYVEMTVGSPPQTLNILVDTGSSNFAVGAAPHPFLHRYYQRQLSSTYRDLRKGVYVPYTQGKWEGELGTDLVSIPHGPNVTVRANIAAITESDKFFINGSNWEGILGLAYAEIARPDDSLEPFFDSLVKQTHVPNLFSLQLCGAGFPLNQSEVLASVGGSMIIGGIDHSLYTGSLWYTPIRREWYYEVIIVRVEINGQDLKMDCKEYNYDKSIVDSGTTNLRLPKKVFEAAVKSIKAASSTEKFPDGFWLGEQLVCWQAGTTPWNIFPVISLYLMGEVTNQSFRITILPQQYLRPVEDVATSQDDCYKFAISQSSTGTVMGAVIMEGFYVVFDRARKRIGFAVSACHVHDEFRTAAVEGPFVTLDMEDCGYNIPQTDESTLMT

murine BACE1 ECD [14] = molecular target: T3, murine BACE1 ECD; assay: cell-based or functional assay
human BACE1 ECD [15] = molecular target: T4, human BACE1 ECD; assay: cell-based or functional assay
[16] = molecular target: T6, BACE1 in primary mouse cortical neurons (mouse, UniProt P56818 46-501); assay: cell-based or functional assay
T6 sequence (P56818 46-501): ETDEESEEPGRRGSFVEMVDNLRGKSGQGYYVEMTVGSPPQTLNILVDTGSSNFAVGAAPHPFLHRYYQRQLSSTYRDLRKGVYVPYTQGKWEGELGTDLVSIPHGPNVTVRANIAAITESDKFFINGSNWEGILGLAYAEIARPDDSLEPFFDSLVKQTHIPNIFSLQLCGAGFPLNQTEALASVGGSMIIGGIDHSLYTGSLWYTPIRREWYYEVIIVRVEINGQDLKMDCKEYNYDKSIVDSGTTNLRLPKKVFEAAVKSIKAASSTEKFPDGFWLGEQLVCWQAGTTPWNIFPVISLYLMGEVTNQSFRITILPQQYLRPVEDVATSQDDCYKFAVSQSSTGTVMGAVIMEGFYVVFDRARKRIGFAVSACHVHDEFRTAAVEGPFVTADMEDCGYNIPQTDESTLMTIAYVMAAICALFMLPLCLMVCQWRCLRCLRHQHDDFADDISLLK

[17] = molecular target: T6, BACE1 in primary mouse cortical neurons; assay: cell-based or functional assay; remark: listed apart in the source
[18] = molecular target: T1, human TfR extracellular domain with …; assay: SPR, Fab
[19] = molecular target: T2, cyno TfR extracellular domain …; assay: SPR, Fab
[20] = molecular target: T1, human TfR extracellular domain with …; assay: SPR, TfR captured by anti-His, Fab injected; remark: listed apart in the source;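 on KD: single cycle kinetics with a Fab dilution series, fitted by a one-to-one Langmuir model or a steady state model, KD taken as koff over kon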
[21] = molecular target: T2, cyno TfR extracellular domain …; assay: SPR, TfR captured by anti-His, Fab injected;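 on KD: single cycle kinetics with a Fab dilution series, fitted by a one-to-one Langmuir model or a steady state model, KD taken as koff over kon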
[22] = molecular target: T2, cyno TfR extracellular domain …; assay: SPR, KD on cyno TfR over KD on human TfR

B1: Hu16F6.v4.Fab (Fab, V domains shown)
VH: EVQLVESGPGLVKPSETLSLTCTVSGNSITSEYAWNWIRQPPGKGLEWIGYISYSGTTSYNPSLKSRVTISRDTSKNQLSLKLSSVTAADTAVYYCARYGYGNPATRYFDVWGQGTLVTVSS
VL: DIQMTQSPSSLSASVGDRVTITCRASKSISKYLAWYQQKPGKTNKLLLYSGSTLQSGVPSRFSGSGSGTDYTLTISSLQPEDFATYYCQQHNEYPWTFGQGTKVEIK
notes: Fab
koff [1]: 0.000169 s⁻¹ | kon [1]: 131000 M⁻¹ s⁻¹ | koff [2]: 0.00244 s⁻¹ | kon [2]: 98900 M⁻¹ s⁻¹ | Cy/hu ratio [3]: 19.1

B2: 5894 (antibody, V domains shown)
VH: QVQLVQSGAEVKKPGSSVKVSCKASGGTFSGYAISWVRQAPGQGLEWMGNIIPGFGTANYAQKFQGRVTITADESTSTAYMELSSLRSEDTAVYYCARSGGTKYGMLDVWGQGTMVTVSS
VL: EIVMTQSPATLSVSPGERATLSCRASQSVGSNLAWYQQKPGQAPRLLIYGASTRATGIPARFSGSGSGTEFTLTISSLQSEDFAVYYCQQLYTWPPRTFGGGTKVEIK
notes: anti-BACE1 IgG
EC50, FRET short substrate [4]: 8.58 nM | EC50, HTRF long substrate [4]: 1.79 nM | Kd (murine BACE1 ECD [5]): < 0.38 nM | Kd (human BACE1 ECD [6]): < 0.27 nM | Kd (murine BACE1 ECD [7]): 0.65 nM | Kd (human BACE1 ECD [8]): 0.3 nM | Kd (murine BACE1 ECD [9]): 0.86 nM | Kd (human BACE1 ECD [10]): 0.27 nM | Kd (murine BACE1 ECD [11]): < 0.4 nM | Kd (human BACE1 ECD [12]): < 0.38 nM | Kd [13]: 2.95 nM | % inhibition of BACE1 activity, short FRET substrate (murine BACE1 ECD [14]): 69% | % inhibition of BACE1 activity, short FRET substrate (human BACE1 ECD [15]): 69% | IC50, Abeta x-40 in mouse cortical neurons [16]: 6.48 nM | IC50, Abeta x-40 in mouse cortical neurons (5894*, second run) [16]: 5.43 nM | maximal % inhibition of Abeta x-40 [16]: 78%

B3: 5905 (antibody, V domains shown)
VH: QLQLQESGPGLVKPSETLSLTCTVSGGSISWSSYYWSWIRQPPGKGLEWIGSIYRSGRTYYNPSLKSRVTISVDTSKNQFSLKLSSVTAADTAVYYCARVGHGISYFDLWGRGTLVTVSS
VL: EIVLTQSPATLSLSPGERATLSCRASQSVSSYLAWYQQKPGQAPRLLIYDASKRATGIPARFSGSGSGTDFTLTISSLEPEDFAVYYCQQVYTWPPRTFGGGTKVEIK
notes: anti-BACE1 IgG
EC50, FRET short substrate [4]: 1.33 nM | EC50, HTRF long substrate [4]: 3.91 nM | Kd (murine BACE1 ECD [5]): 0.38 nM | Kd (human BACE1 ECD [6]): 0.27 nM | Kd (murine BACE1 ECD [7]): 1.1 nM | Kd (human BACE1 ECD [8]): 1.1 nM | Kd (murine BACE1 ECD [9]): 1.4 nM | Kd (human BACE1 ECD [10]): 1.3 nM | Kd (murine BACE1 ECD [11]): 0.4 nM | Kd (human BACE1 ECD [12]): 0.51 nM | Kd [13]: 3.53 nM | % inhibition of BACE1 activity, short FRET substrate (murine BACE1 ECD [14]): 72% | % inhibition of BACE1 activity, short FRET substrate (human BACE1 ECD [15]): 65% | IC50, Abeta x-40 in mouse cortical neurons [17]: 0.33 nM | IC50, Abeta x-40 in mouse cortical neurons (5905*, second run) [17]: 0.83 nM | maximal % inhibition of Abeta x-40 [17]: 65%

B4: G93A (Fab, V domains shown)
VH: EVQLVQSGAEVKKPGASVKVSCKASGYTFTSYWMHWVRQAPGQRLEWIGEINPTNGRTNYIEKFKSRATLTVDKSASTAYMELSSLRSEDTAVYYCARGTRAYHYWGQGTMVTVSS
VL: DIQMTQSPSSLSASVGDRVTITCRASDNLYSNLAWYQQKPGKSPKLLVYDATNLADGVPSRFSGSGSGTDYTLTISSLQPEDFATYYCQHFWATPLTFGQGTKVEIK
notes: also called 15G11.v5 G93A (CDR-L3) Fab
Kd [18]: 245 nM | Kd [19]: 1300 nM

B5: Hu15G11.HC34A Fab (Fab, V domains shown)
VH: EVQLVQSGAEVKKPGASVKVSCKASGYTFTSYWAHWVRQAPGQRLEWIGEINPTNGRTNYIEKFKSRATLTVDKSASTAYMELSSLRSEDTAVYYCARGTRAYHYWGQGTMVTVSS
VL: DIQMTQSPSSLSASVGDRVTITCRASDNLYSNLAWYQQKPGKSPKLLVYDATNLADGVPSRFSGSGSGTDYTLTISSLQPEDFATYYCQHFWGTPLTFGQGTKVEIK
notes: Fab
koff [20]: 0.00403 s⁻¹ | kon [20]: 564000 M⁻¹ s⁻¹ | koff [21]: 0.0099 s⁻¹ | kon [21]: 304000 M⁻¹ s⁻¹ | Cy/hu ratio [22]: 4.6

B6: P95A (Fab, V domains shown)
VH: EVQLVQSGAEVKKPGASVKVSCKASGYTFTSYWMHWVRQAPGQRLEWIGEINPTNGRTNYIEKFKSRATLTVDKSASTAYMELSSLRSEDTAVYYCARGTRAYHYWGQGTMVTVSS
VL: DIQMTQSPSSLSASVGDRVTITCRASDNLYSNLAWYQQKPGKSPKLLVYDATNLADGVPSRFSGSGSGTDYTLTISSLQPEDFATYYCQHFWGTALTFGQGTKVEIK
notes: also called 15G11.v5 P95A (CDR-L3) Fab
Kd [18]: 170 nM | Kd [19]: 886 nM

B7: Hu15G11.HC51A Fab (Fab, V domains shown)
VH: EVQLVQSGAEVKKPGASVKVSCKASGYTFTSYWMHWVRQAPGQRLEWIGEANPTNGRTNYIEKFKSRATLTVDKSASTAYMELSSLRSEDTAVYYCARGTRAYHYWGQGTMVTVSS
VL: DIQMTQSPSSLSASVGDRVTITCRASDNLYSNLAWYQQKPGKSPKLLVYDATNLADGVPSRFSGSGSGTDYTLTISSLQPEDFATYYCQHFWGTPLTFGQGTKVEIK
notes: Fab
koff [20]: 0.0104 s⁻¹ | kon [20]: 433000 M⁻¹ s⁻¹ | koff [21]: 0.0329 s⁻¹ | kon [21]: 313000 M⁻¹ s⁻¹ | Cy/hu ratio [22]: 4.4

B8: Hu15G11.HC53A Fab (Fab, V domains shown)
VH: EVQLVQSGAEVKKPGASVKVSCKASGYTFTSYWMHWVRQAPGQRLEWIGEINPANGRTNYIEKFKSRATLTVDKSASTAYMELSSLRSEDTAVYYCARGTRAYHYWGQGTMVTVSS
VL: DIQMTQSPSSLSASVGDRVTITCRASDNLYSNLAWYQQKPGKSPKLLVYDATNLADGVPSRFSGSGSGTDYTLTISSLQPEDFATYYCQHFWGTPLTFGQGTKVEIK
notes: Fab; also called 15G11.53A Fab
koff [20]: 0.0115 s⁻¹ | kon [20]: 890000 M⁻¹ s⁻¹ | koff [21]: 0.025 s⁻¹ | kon [21]: 484000 M⁻¹ s⁻¹ | Cy/hu ratio [22]: 4

B9: Mu7A4.Fab (Fab, V domains shown)
VH: QVQLQQSGPELVRPGVSVKISCKGSGYTFTDYAMHWVKQSHAKSLEWIGGISTYFGRTNYNQKFKGRATMTVDKSSSTAYMELARLTSEDSALYYCARGLSGNYVMDYWGQGTSVTVSS
VL: DIVLTQSPASLAVSLGQRATISCRASESVDDYGNSFMHWYQQKPGQPPKLLIYRASNLESGIPARFSGSGSRTDFTLTINPVEADDVATYYCQQSNEAPPTFGGGTKLEIR
notes: Fab; also called mouse 7A4 Fab
Kd [1]: 0.19 nM | koff [1]: 0.000313 s⁻¹ | kon [1]: 1.65e+06 M⁻¹ s⁻¹ | Kd [2]: 0.741 nM | koff [2]: 0.000845 s⁻¹ | kon [2]: 1.14e+06 M⁻¹ s⁻¹ | Cy/hu ratio [3]: 3.9

B10: Mu16F6.Fab (Fab, V domains shown)
VH: DVQLQESGPGLVKPSQSLSLTCTVTGNSITSEYAWNWIRQFPGNKLEWMGYISYSGTTSYNPSLKSRISITRDTSKNQLFLQLNSVTTEDTATYFCARYGYGNPATRYFDVWGAGTTVTVSS
VL: DVQITQSPSYLTASPGETITINCRASKSISKYLAWYQEKPGKTNKLLIYSGSTLQSGIPSRFSGSGSGTDFTLTISNLEPEDFAMYYCQQHNEYPWTFGGGTKLEIK
notes: Fab; also called mouse 16F6 Fab
koff [1]: 0.00019 s⁻¹ | kon [1]: 60700 M⁻¹ s⁻¹ | koff [2]: 0.00137 s⁻¹ | kon [2]: 51100 M⁻¹ s⁻¹ | Cy/hu ratio [3]: 8.56
